By koff is commonly meant the first-order rate constant of dissociation. The low end stands for a long-lived complex, the high end for a short-lived complex. A word on the Kd: it is the concentration at which binding is half-saturated. A low value points to higher affinity. What is called kon is the second-order rate constant of association.

In assay [1] the target is T1, PF4/heparin complex (human PF4 complexed with heparin) (human, UniProt P02776 32-101).
T1 construct: Multimeric complex of PF4 with heparin (not a protein); In the EIAs: PF4 captured on biotinylated heparin on streptavidin plates; In the SRA: platelets with 0.2 U/mL heparin; also called PF4 and heparin complexes
T1 sequence: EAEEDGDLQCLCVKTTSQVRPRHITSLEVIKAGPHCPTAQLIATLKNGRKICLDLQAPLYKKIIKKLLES
In words: BLI (Octet), biotinylated PF4/heparin on streptavidin sensors, 1:1 model; scFv at 0.5 µg/mL (response near baseline). The protocol:
(§1) The Octet-QK Red 96 (FortéBio, Menlo Park, CA) instrumentation was used to conduct all BLI experiments. A 96-well microtiter plate (black, flat-bottom) was used to hold 200 μL per well of either sample or buffer. Pre-coated streptavidin biosensor tips (FortéBio) were hydrated in phosphate buffered saline (PBS) containing 1% bovine serum albumin (BSA, Sigma-Aldrich) before performing all kinetic assays. Each step was performed at an operating temperature of 23° C. with agitation at 1000 rpm. Streptavidin tips were first equilibrated in PBS+1% BSA to establish a baseline. […] The PF4-coated tips were then dipped into PBS+1% BSA for 13 minutes to re-establish a baseline. Tips were then incubated in an analyte solution containing half-fold dilutions of wildtype scFv (4.0, 2.0, 1.0, 0.5, 0.25 μg/mL in PBS+1% BSA) for 10 minutes to measure association. For mutant scFv association, tips were incubated in an analyte solution containing 200 μL of each mutant and wildtype scFv at a final concentration of 1 μg/mL in PBS+1% BSA. Antibody dissociation steps were performed by dipping sensors in wells containing PBS+1% BSA for 56 minutes. The following negative controls included in these kinetic experiments were also measured: 200 μL of buffer to replace both the antigen and scFv and 200 μL buffer replacing scFv only. Each experiment was performed with PF4 or with PF4/heparin as the immobilized antigen. […]

Assay [2] deals with T2, Human PF4 (CXCL4), biotinylated, without heparin (human, UniProt P02776 32-101, biotinylated with EZ-link-Sulfo-NHS-LC-Biotin (sites not given)).
T2 construct: Immobilised on streptavidin biosensors for BLI; also called PF4 alone; platelet factor 4
T2 sequence: T1 sequence
As to the kind of experiment: BLI (Octet), biotinylated PF4 without heparin on streptavidin sensors, 1:1 model; scFv at 0.25 µg/mL (response near baseline, software limit value). The protocol: (§2) All data was analyzed based on a 1:1 homogenous ligand binding model using Octet® User Software version 3.1.
as §1, with “Antibody dissociation steps were performed by dipping sensors in wells containing PBS+1% BSA for 56 minutes.” left out, “only.” for “only. Each experiment was performed with PF4 or with PF4/heparin as the immobilized antigen.”
Background: BLI is a label-free optical method that tracks binding on a fibre tip over time.

In assay [3] the target is T1, PF4/heparin complex (human PF4 …). As to the kind of experiment: BLI (Octet), biotinylated PF4/heparin on streptavidin sensors, 1:1 model; scFv at 0.25 µg/mL (response near baseline). Here is the method:
as §1

Assay [4] concerns the target T2, Human PF4 (CXCL4), biotinylated, …. As to the kind of experiment: BLI (Octet), biotinylated PF4 without heparin on streptavidin sensors, 1:1 model; scFv at 0.25 µg/mL (response near baseline). The protocol: as §2
as §1, with “Antibody dissociation steps were performed by dipping sensors in wells containing PBS+1% BSA for 56 minutes.” left out, “only.” for “only. Each experiment was performed with PF4 or with PF4/heparin as the immobilized antigen.”

Assay [5] concerns the target T1, PF4/heparin complex (human PF4 …). As to the kind of experiment: BLI (Octet), biotinylated PF4/heparin on streptavidin sensors, 1:1 model; scFv at 1.0 µg/mL. The protocol:
(§3) The Octet-QK Red 96 (FortéBio, Menlo Park, CA) instrumentation was used to conduct all BLI experiments. A 96-well microtiter plate (black, flat-bottom) was used to hold 200 μL per well of either sample or buffer. Pre-coated streptavidin biosensor tips (FortéBio) were hydrated in phosphate buffered saline (PBS) containing 1% bovine serum albumin (BSA, Sigma-Aldrich) before performing all kinetic assays. Each step was performed at an operating temperature of 23° C. with agitation at 1000 rpm. Streptavidin tips were first equilibrated in PBS+1% BSA to establish a baseline. […] The PF4-coated tips were then dipped into PBS+1% BSA for 13 minutes to re-establish a baseline. Tips were then incubated in an analyte solution containing half-fold dilutions of wildtype scFv (4.0, 2.0, 1.0, 0.5, 0.25 μg/mL in PBS+1% BSA) for 10 minutes to measure association. For mutant scFv association, tips were incubated in an analyte solution containing 200 μL of each mutant and wildtype scFv at a final concentration of 1 μg/mL in PBS+1% BSA. Antibody dissociation steps were performed by dipping sensors in wells containing PBS+1% BSA for 56 minutes. The following negative controls included in these kinetic experiments were also measured: 200 μL of buffer to replace both the antigen and scFv and 200 μL buffer replacing scFv only. Each experiment was performed with PF4 or with PF4/heparin as the immobilized antigen.
(§4) BLI experiments were performed to evaluate binding responses and affinities of wildtype and mutant scFv. Biotinylated PF4 alone or complexed with heparin was immobilized on streptavidin biosensors and used to capture wildtype scFv. Half-fold serial dilutions of wildtype scFv ranging from 0.25 μg/mL to 4 μg/mL were used to determine the optimal concentrations for future experiments PF4 (PF4 FIG. 3; PF4/heparin FIG. 4).

For assay [6] the target is unchanged. As to the kind of experiment: BLI (Octet), biotinylated PF4/heparin on streptavidin sensors, 1:1 model; scFv at 2.0 µg/mL. Here is the method:
as §3, §4

In assay [7] the target is T2, Human PF4 (CXCL4), biotinylated, …. In words: BLI (Octet), biotinylated PF4 without heparin on streptavidin sensors, 1:1 model; scFv at 4.0 µg/mL. The protocol:
as §3, §4

Assay [8] shares this target. In words: BLI (Octet), biotinylated PF4 without heparin on streptavidin sensors, 1:1 model; scFv at 0.5 µg/mL. The protocol: as §3, §4
Assay [9] deals with T1, PF4/heparin complex (human PF4 …). As to the kind of experiment: BLI (Octet), biotinylated PF4/heparin on streptavidin sensors, 1:1 model; scFv at 4.0 µg/mL. Here is the method:
as §3, §4

For assay [10] the target is unchanged. As to the kind of experiment: BLI (Octet), biotinylated PF4/heparin on streptavidin sensors, 1:1 model; scFv at 0.25 µg/mL (response near baseline, software limit value). The protocol: as §1
For assay [11], the target named is T2, Human PF4 (CXCL4), biotinylated, …. As to the kind of experiment: BLI (Octet), biotinylated PF4 without heparin on streptavidin sensors, 1:1 model; scFv at 2.0 µg/mL. Here is the method:
as §3, §4

B1: Wildtype scFv (KKO-derived single chain variable fragment) (scFv)
scFv: DIQMIQSQKFMSTSVGDRVTVTCKASQNVGTNVAWYQQKPGQSPNALIYSASYRYSGVPDRFTGSGSGTDFTLTITNVQSEDLADYFCQQYNSYPLTFGTGTKLDLKGGGGSGGGGSGGGGSVQLQQSGAELVKPGASVKLSCKASGYTFTNYFIYWVKQRPGQGLEWIGEINPRNGDTDFNEKFESRATLTVDKSSSTAYMQLSSLTSEDSAIYYCTRSPYGNNYGFTYWGQGTLVTVSA
notes: VL-(G4S)3 linker-VH; expressed in E. coli BL21 from pADL-22c, purified on Ni-NTA as histidine-tagged scFv, about 28 kDa; also called WT; KKO-scFv; not shown: histidine tag from the pADL-22c vector
Consider B1, for which the koff was determined as 0.00504 s⁻¹ in assay [1]; 0.00042 s⁻¹ in assay [3]; 0.021 s⁻¹ in [4]; 0.000264 s⁻¹ in assay [5]; 0.000571 s⁻¹ in [6]; 0.000596 s⁻¹ in [7]. For the same molecule, the koff worked out at 0.0037 s⁻¹ in assay [8], 0.000871 s⁻¹ in assay [9] and 0.000515 s⁻¹ in assay [11]. The Kd was < 0.001 nM in assay [2]; 0.961 nM in [5]; 9.18 nM in assay [6]; 24.1 nM in assay [7]; 34.5 nM in [8]; 39.3 nM in [9]. Also, the equilibrium dissociation constant (Kd) in assay [10] was < 0.001 nM; in assay [11] it was 9.59 nM. Further, the kon worked out at 274000 M⁻¹ s⁻¹ in [5]; 62100 M⁻¹ s⁻¹ in assay [6]; 24800 M⁻¹ s⁻¹ in [7]; 107000 M⁻¹ s⁻¹ in [8]; 22200 M⁻¹ s⁻¹ in assay [9]; 53800 M⁻¹ s⁻¹ in assay [11].

Values taken from patent US20250011413A1 (MCMASTER UNIVERSITY, published 2025).
